Laboratory results as given in the domain aggregation screens of Martell et al. (2025).

Assay: soluble fraction after stress (log2 fold change); higher = more stays soluble; pooled small domains, quantitative proteomics
Conditions: stress: 75 degC
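Further: 20 min heating vs room temperature control held 20 min.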

Sequence	soluble fraction (log2)
HMSKITNALLMMKLLSNGKVYSVKELSEELGVTERMVRNYKEQLEMSGYIIESFKGPGGGYFINKN	-2.61
HMSKKAIVINLLKRPDGASLKDIMQATYWQAHSVRGFISGSLTKKMGLNVESFKRPDGERAYRIN	-2.47
HMSKLIDQELINFFKNQIESKSFRYGVSIEDSYEEIKSNQIKFYGEQEDKLKAIDNAFIELKRERAGIR	-0.168
HMSKNDLAGDEADVYKLLSVETGKPISDLVNRLPFGKSKTREILNTLAEKGFVYISGSGRGTKYHR	-0.296
HMSKNTFIGNIDDKELYVGSGRYGPFMLYDGKFTNITRYLSDESKELTDITIDDYSKIVNNARPK	-0.175
HMSKNVTMPNLVGYSMRQAKAELLSRGLHLGKLIYVNDIATNNVISQLYRNAEIEPGVKIESESYVDLVVG	-1.76
HMSKPTLTDELLTLDLFEEIIKAKENAKGANKRFSLVGFLESKYIVDQEMLPKVNVKVTEYYNLTREN	-1.8
HMSKPVVWIVGDSTVSAFTDNYYYPRYGWGTQIDKYLDGTFEVKNIALSGRSSTSYTADKEYGELIAG	0.293
HMSKRIFPNEFQRNSPDAMVMLDKMNLSRINVDPLTKSLTLNGGGSVKTLLNGREVSAVEIAALSP	0.124
HMSKSENLYSAARELIPGGVNSPVRAFTGVGGTPLFIEKADGAYLYDVDGKAYIDYVGSWGPMVLGHNHP	-0.337
HMSKSIEEIYDEAIRSLANEEYDSAKKLFSYLIDNFSDPEKLPLSLFWLGEIEFSSSNFDQSKIHYIE	-0.15
HMSKSIGEALKEERRSLGLTQEQFIKGIISESFYSKVERGKNEIVAVDLLKILAANNISEEEFLSKLN	-0.694
HMSKSPELMEKIKEFAEGYFRENGETPSNKTIAGAMGMGRSTVYYYLVDMAQRGMISYENGVISTEKIRKL	-1.4
HMSKTDYKILYSDLNREDAKQLSLLLEDKKIPYQTSEDGKTIKIPEGMVNRFRMEVATMGVNF	-0.0248
HMSKTKDVLVQLMAERGLTQSDIARALSVRPQAVQQWVSGKTRPTGKNLEALAEFLQLPPAVIVHGP	-0.282
HMSKTQVKSVLDDIKGIGVVRRKALIKHFNDIEAIKAAQLAELKAVAGMDSKSAQSVYDFFHK	-0.453
HMSKYERVYTGSEINVNHLKSQLEDAGISSVVRNDHESAIRAGFGSDYDRGVLLFVEKDNLLRAKHIIEKT	0.126
HMSKYLAFTVKKNDELLPFIEKALNGISHTKAKAILANGGAMVNKNTITQYNYPLTPGMTVEISRH	-0.5
HMSLDLNENEKTIFDIIQNKKTIRLSELKIEAGLSNKGWDKAMKSLTKQGLAKVVKTEDQLTVKLL	-0.499
HMSLEDNEVIQRMKVILDRFDEETAVDRTTAFKAVLDHIGKMDAESKTLEHMAEMLEALLDKVLEE	-1.09
HMSLGPNAYGKPATALNILRETVMGKELFDHAFKTYSKRWMFKHPSPEDFFRTMEDASAVDLDWFWR	0.178
HMSLGSQEYSIGFRNGDSTYHYIDKALKELAYEGVIDELSTQWFGSSRAVDFPSQKDALSELGYIA	-0.123
HMSLGSSLFHARKKSGLTQEAVAEKLGVSRQTISKWETNETLPDIRQSKGLAMLYHMTLDELIE	-0.422
HMSLGTDVVPDFTGKGIKEAKTEFAAYSEGELYIIGEGEKVKEQFPLPGEKVNKNSDLILYV	0.0388
HMSLIDLLQLNRKSKKLTLMNLVEMTGLSYGKVYRIFNGGIDKPTPDSLKLLAKALQLDYSYLFHKAGYL	-0.468
HMSLIEQKSQIPLVQGGQRVDKVAAALFTDFSRAELTGWIQQGALTLDGAVVKPKYKVLGGEWLYLRASQS	-1.75

Sequence	soluble fraction (log2)
HMSLNIIEITAKKEINELKSFNIIYFNFDKNNSIYEYKISEREKKEILEIEKIIKNSDNVTNYEIRYSF	-1.31
HMSLNQRIKEARIKMGYTQEQLGNLIGVAKTTISGYEKNREPDAATIGLIIDALKVDANFLFQ	-2.06
HMSLNSELIARIENLIASIEDKRSWGYGFAESVLGQVQAGATLSPRQLEIIAKLEKENSYSVQLERQ	-1.16
HMSLPALSAEEQKIVDALHGTPKGVDDIIAETGISSGALLRSLTMLELKKVIVRLPGNRIAPK	-1.53
HMSLPDREVVLETSSDSYYHFKTDHFQRQITYSAVRNAPVRLVTISAERAFEVISLNRRGERPEHLE	-3.24
HMSLQEISDLISQAERADQEQLKEVLKQLHQVESGNQPMSKGFLSSALSTLNKYPALITSIGQLLFKLAT	-0.217
HMSLSEGVSADVVADVQARLMELGYMDEDDPDGNFSESTRIAVEHFQQQAGLPVTGTVDKATLDALNSPD	0.264
HMSLSQLGLTPRQTDVLALLLKGQPNKLIARELGLSVETVKDHVAAVLRALNVSSRTQAVIAVSQMLQ	-2.13
HMSLSVEESYKLLDISPSAGDEEITKKFRLLALKYHPDKNRSKIEWANNIMSRLNQAYSVIMSSRFESNAE	-1.6
HMSLTTKSVEETLGITRQTLHNWIKEGLLPAPKKDFRNWYIWSDEDLENLRNIIEQKTLINNKKQAV	0.203
HMSMANKKDFILDTAQKLFMEQGFDQTSISQILEATQIARGTLYYYFSSKEEIMDAIIERTIEQ	-0.966
HMSMDYYNILGVNRNASTGEIKKAYKRASMQHHPDRGGNSDEFIKVQQAYDTLSDNHKRQAYDNP	-0.0907
HMSMDYYSTLGVSKTASASDIKKAYRKLAMANHPDKGGDSAKFAKITEAYDVLKDPQKRNNYDQFGTA	0.0592
HMSMEQAKAEEIEKLGDNAPERLQAAALFAEKFFPQDVMDAVYKITETADGVRAIEHIMQTVK	-1.11
HMSMISLPNFVGKDIETVKAWAKENGITLIINKVEDSAKKDTVISQNPTNSDYSKILKGSAFTVNIAKE	0.0389
HMSMRILNHTVVKILKRYRIATDEQLQPLLDEAERSGRSLQDVVLDAKLVSETELTKLFADYAD	-3.66
HMSMVGNIEKILVTGESKKSSELLAGRTENNRVVNFTGEKVLIGSMVNVRIEEVFPNSLGGSYLPS	-0.133
HMSNAIDDAVEKVISENLDLAKERGLQSMGPLMGLVMKELGGTADGKAVSEALRRKISEISD	0.413
HMSNEDAYIKLRNGFLATLSEADLLLFTLREEGKTQKEIADQLGYKTHSAVSKRLQTMRGQFEGYLKTQ	-1.03
HMSNEIIFNQKSITRFLMNPENNSPMIYPLELGHEMKVIKKNNDWLNVTDEKTGLNGWVISDDFGLTKPEG	-0.118
HMSNETLFEFFEKNISQLTPTLVDNINRSLAVHSKKNVKLAIMIAAKSNVRNWNYISAILNRWEKE	-2.4
HMSNIAQRLVLENALAKLNQEQQTIIDLRIIKGYSVAETARLLGKTESAVRTAQYRALKELAGILEED	-2.07
HMSNIIIYPNPTNDGLIHIKGSKFPFNYALYNLSGKLIETGKKNQIQLNDRGVYLLKIQTEGQTYFKKII	-0.16
HMSNNILEISSNKKNMKIQENKNLVESYYSKTENLYSFKLVFKNKRDLDQFLKEVYEDDSTINYKTSS	-1.27
HMSNPPLPFLAKTKVSWTGEQDGDLGFLENEVVKVFHVVDELWWQGSLSRNGAEGIFPRDFVEVISAP	-2.09
HMSNSWSYSEFMKAVESGQVESVTISGQSIKGTSRGGQAFESVLPAFDDKLMDTLLVNDVEVIGEKP	0.556

Sequence	soluble fraction (log2)
HMSNTGDIIRKLREESGVTAKELAHRIGLSASQMSRLESGKRRINSEVLTRIARALEVAPSQLID	-0.439
HMSNTIFGINGPVVTVASKDFSMQEMVYVGNERLVGEVISIDDDLTTIQVYEVTTGLKPGEPVVGTGSAM	-0.34
HMSNVDYSQFKKDTVVEHTKFGRGIIIQTSGDGEDKIAAIAFKGLGVKRFSLAIAAASLKIIGKNDE	-2.49
HMSNYFIEISKDSLARINDEIELDVLRETSDTIIISQEEKTNTISSFIKVLFERQIDILSIQNR	0.0911
HMSNYYNILGVNKSSTQDEIKKAFRKKAVEHHPDKGGNEATFKKINEAYNTLSDNNKRHMYDMQQSG	0.119
HMSPDALSNLPIGSEIKFTLWDGTEKRLVKHPAAYQFSRPFWMNLNEYTYVPVNRIPKNYEVIRL	0.182
HMSPEVEEISIDHLKAGMRILSDLRLPNGTLVAPKGSVVDAHFIKIVENYVISYFGNPFPDRIKVIM	-1.95
HMSPEWTPAEQDAIDKASEGEYGEALQRVLSGDYEPMDIPDALWGVQQVADKDTYSSIQKKIADIGN	0.383
HMSPIPLPVERAIHKLGSDISLARRRRHISQASLAERMGASLSTVRRMEKGDVRVPIHFFARALHVFG	0.123
HMSPIQLKYNEYLIYIDEGKINTAEIHGNKITGKLKEGSEYVVTIYPELIASITEKLAENNVQTQLIQ	-0.0829
HMSPLPDRESLGAIEKLISLLGSSEWTVREKATRELGAFGYLARPVLQRELATSGDPEVSRRLERILSNL	-0.545
HMSPLTPEEAEVLRILGDHGDMTVDNIATEGKMSAAAVLRVLGVLSAYGLAVPSGPGRWGSRAA	-0.462
HMSPPPRPSHPEAAGLRHLAFEVDNIDDAVRHLDRLGVPHEPVRTDEYTGRRFLFFTDPDRLPLELYEK	-0.432
HMSPQIDYFDDEELDVYRQIAPEAYTDEQIEVFRDILYTLRPEEVEEWLISLEKREINLPLILRQEAIELI	0.481
HMSPRQVTAVRSGSPMPVLPGEDWRLYDASGALVARGSGAAPIPKSTGLLRLNSEGLDGLADRWIWVL	-0.553
HMSPSRRENLTAAAKEYFVNTQIRHKTFGNGVIIKRSGNIAAIRFDNGTIKQIDLIAALQAKVLSIL	-2.71
HMSPSTNKTFSFSKENISIGQTVFIKKLNQNATVLTLPNKSNQLQVQFGVITMNVKLEDLALPTN	-2.62
HMSPTSSRAAQARIRKMIESESPLKPISDSQLAARLGEEGISIARRTVAKYREQMNILPASQRRGV	-0.351
HMSPVPRIEIELTSSKEDGSWTWRAVGAREPRGSLDGALLAKPAAVGDVLRVETDQFLDGMTVTAILPPRD	-0.263
HMSQAVEISSVKTQIDGKSYYLHTIKQGQTLYGISKAYGVSVEELTTVNPETSKGLKVGQIIKVPDTKT	0.395
HMSQDLVVLGDSMLNNALKAFHIDPNAIKKKYWDKLILDYHLKSKEEVLTEIALGKKINVMVAHQLTSIMD	0.051
HMSQEILSNQSIKDMIELGFEEQTIIDKIQTSTSDFDTTIEELKALKQLGASPTILSAMIKSIKK	1.01
HMSQLDITEARIVVSGGLGMQGPENFKLLEELAKVLGGAVGASRPVVDNGWREYSNQVGQTGKIVAPELYV	0.0901
HMSQLETEEAKRIVLKDLLRLYNNYNIIELEEDEFDRFITYLNMPYDFLQKTSDYDLAVSIKRMYASY	-2.28
HMSQNISSTKLIPENIKIGMSVFVIPLQQKGIVQSLPNRSKEVLVQIGNAKINVKINNLKLIED	-0.142
